Source: patent US9688764B2, “Methods of treating breast cancer by administering anti-human prolactin receptor (PRLR) antibodies” (REGENERON PHARMACEUTICALS, INC., priority 2013, dated 2017)

T1: HEK293/hPRLR (Homo sapiens, UniProt P16471)
T1 construct: HA; expressed in transfected cells; host or cells: HEK293
T1 sequence (P16471 25-622): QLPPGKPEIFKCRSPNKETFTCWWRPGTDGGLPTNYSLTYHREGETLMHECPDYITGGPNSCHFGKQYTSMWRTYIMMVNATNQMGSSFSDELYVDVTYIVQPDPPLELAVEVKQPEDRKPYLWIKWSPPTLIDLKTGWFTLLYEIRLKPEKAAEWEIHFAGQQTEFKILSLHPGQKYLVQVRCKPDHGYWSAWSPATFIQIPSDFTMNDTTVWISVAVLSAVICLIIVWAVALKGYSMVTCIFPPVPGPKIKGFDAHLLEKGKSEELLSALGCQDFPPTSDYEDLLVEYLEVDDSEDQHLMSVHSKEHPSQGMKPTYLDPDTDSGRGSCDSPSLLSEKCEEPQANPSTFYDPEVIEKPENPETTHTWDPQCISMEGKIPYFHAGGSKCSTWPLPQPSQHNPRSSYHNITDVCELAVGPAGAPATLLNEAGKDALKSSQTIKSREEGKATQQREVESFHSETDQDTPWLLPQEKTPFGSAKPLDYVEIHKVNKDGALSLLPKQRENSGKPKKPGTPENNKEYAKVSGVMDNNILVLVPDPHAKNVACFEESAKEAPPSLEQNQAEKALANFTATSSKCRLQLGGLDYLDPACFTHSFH

T2: HEK293/mPRLR (Mus musculus, UniProt Q08501)
T2 construct: HA; expressed in transfected cells; host or cells: HEK293
T2 sequence (Q08501 20-608): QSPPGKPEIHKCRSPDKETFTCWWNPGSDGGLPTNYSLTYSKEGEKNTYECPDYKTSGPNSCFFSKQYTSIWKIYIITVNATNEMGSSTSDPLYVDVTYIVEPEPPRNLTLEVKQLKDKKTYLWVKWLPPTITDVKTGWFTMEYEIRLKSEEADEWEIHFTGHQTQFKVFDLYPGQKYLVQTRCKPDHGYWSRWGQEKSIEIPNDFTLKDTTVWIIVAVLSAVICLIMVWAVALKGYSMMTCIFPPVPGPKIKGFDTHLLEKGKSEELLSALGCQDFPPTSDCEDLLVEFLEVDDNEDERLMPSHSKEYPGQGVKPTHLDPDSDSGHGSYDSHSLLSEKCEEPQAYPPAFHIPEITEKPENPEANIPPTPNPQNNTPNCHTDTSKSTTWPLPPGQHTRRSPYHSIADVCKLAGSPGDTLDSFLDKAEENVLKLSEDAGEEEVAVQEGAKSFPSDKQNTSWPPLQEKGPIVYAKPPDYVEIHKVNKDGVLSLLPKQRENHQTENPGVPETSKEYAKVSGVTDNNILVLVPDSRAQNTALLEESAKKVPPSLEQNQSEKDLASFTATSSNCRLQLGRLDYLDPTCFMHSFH

T3: T47D (native PRLR expressing cell line) (Homo sapiens, UniProt P16471)
T3 construct: a native PRLR expressing cell line (T47D); endogenous in cells; host or cells: T47D
T3 sequence (P16471 25-622): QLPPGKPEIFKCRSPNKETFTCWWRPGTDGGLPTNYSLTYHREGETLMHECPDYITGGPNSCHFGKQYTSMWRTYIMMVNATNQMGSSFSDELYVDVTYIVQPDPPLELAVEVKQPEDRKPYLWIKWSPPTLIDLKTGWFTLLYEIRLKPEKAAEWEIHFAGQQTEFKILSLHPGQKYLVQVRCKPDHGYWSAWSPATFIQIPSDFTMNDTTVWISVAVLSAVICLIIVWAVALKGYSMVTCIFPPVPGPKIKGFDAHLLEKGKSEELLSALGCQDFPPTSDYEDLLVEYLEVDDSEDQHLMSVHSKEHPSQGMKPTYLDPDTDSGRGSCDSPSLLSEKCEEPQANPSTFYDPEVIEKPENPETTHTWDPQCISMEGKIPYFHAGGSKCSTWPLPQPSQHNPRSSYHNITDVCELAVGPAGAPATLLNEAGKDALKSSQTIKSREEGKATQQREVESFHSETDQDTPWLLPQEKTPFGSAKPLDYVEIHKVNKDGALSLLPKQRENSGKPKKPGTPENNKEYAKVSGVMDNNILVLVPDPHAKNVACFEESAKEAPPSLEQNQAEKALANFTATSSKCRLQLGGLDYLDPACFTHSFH


Columns and labels:
[1] = molecular target: T4, hPRLR.mFc (soluble dimeric human PRLR) (Homo sapiens, UniProt P16471); assay: Surface plasmon resonance (Biacore T200), mAb-capture format; type: binding; settings: antibody-capture format, analyte hPRLR.mFc
T4 construct: dimeric (hPRLR.mFc)
T4 sequence (P16471 with tags, fused parts or gaps): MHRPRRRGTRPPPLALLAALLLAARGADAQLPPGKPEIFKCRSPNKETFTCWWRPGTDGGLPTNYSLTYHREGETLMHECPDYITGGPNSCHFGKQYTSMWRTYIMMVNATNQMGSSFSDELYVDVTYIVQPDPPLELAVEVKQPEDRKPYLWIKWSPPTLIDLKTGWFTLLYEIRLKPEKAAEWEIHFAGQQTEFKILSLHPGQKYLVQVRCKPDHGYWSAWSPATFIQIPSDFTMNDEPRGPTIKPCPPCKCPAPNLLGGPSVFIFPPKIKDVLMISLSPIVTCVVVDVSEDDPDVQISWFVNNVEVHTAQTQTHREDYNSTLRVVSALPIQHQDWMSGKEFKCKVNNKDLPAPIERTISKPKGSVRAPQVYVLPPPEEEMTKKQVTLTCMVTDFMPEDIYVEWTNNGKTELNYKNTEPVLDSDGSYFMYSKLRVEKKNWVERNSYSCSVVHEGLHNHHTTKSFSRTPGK
Description: (§1) Antibodies, expressed as human IgG1 Fc “[…]” designations), were captured onto an anti-human Fc sensor surface (mAb-capture format), and soluble monomeric (hPRLR.mmh; SEQ ID NO:401, or macaca fascicularis (mf) PRLR.mmh; SEQ ID NO:403) or dimeric (hPRLR.mFc; SEQ ID NO:402) PRLR protein was injected over the sensor surface. Measurements were conducted on a T200 Biacore instrument. Kinetic association (ka) and dissociation (kd) rate constants were determined by processing and fitting the data to a 1:1 binding model using Scrubber 2.0 curve fitting software.

[2] = molecular target: T5, hPRLR.mmh (soluble monomeric human PRLR) (Homo sapiens, UniProt P16471); assay: as above; type: binding; settings: antibody-capture format, analyte hPRLR.mmh
T5 construct: soluble monomeric (hPRLR.mmh); mmh (myc-myc-hexahistidine)
T5 sequence (P16471 with tags, fused parts or gaps): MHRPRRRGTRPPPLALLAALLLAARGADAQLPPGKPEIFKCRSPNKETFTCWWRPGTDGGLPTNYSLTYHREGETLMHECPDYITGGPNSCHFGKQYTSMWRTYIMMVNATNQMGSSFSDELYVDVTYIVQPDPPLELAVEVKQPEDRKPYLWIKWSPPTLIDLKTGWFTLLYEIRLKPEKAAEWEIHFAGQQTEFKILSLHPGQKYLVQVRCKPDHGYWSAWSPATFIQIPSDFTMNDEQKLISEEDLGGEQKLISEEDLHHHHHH
Description: as §1

[3] = molecular target: mfPRLR.mmh (monomeric macaca fascicularis PRLR); assay: as above; type: binding; settings: antibody-capture format, analyte mfPRLR.mmh
Chain of mfPRLR.mmh (monomeric macaca fascicularis PRLR) (as listed by the source): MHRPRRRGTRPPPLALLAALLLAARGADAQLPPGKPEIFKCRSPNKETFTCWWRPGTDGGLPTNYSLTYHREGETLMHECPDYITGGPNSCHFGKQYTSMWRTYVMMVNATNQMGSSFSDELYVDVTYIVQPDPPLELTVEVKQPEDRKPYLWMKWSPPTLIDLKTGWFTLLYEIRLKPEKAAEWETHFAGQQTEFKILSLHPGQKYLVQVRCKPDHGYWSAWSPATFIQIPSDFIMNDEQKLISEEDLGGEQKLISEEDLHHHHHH
Description: as §1

[4] = system: HEK293 (non-expressing parental cells); assay: FACS cell surface binding
Description: (§2) The ability of anti-PRLR antibodies to selectively bind PRLR expressing cell lines was next determined. Human, monkey macaca fascicularis, and mouse PRLR constructs with an HA tag were stably introduced into HEK293 cells via Lipofectamine 2000-mediated transfection methodology. Transfectants (HEK293/hPRLR, HEK293/mfPRLR and HEK293/mPRLR) were selected for at least 2 weeks in complete growth media plus G418.
(§3) Cell surface expression of PRLR on 293/hPRLR cells was assessed via FACS analysis. Briefly, 1×10^5 cells were incubated with 10 μg/ml of Control antibody I, or an isotype control for 30 min on ice in antibody dilution buffer. Following two washes with antibody dilution buffer, cells were incubated with 10 μg/ml of PE conjugated anti-human secondary antibodies for 30 min on ice. Following two additional washes, samples were run on a Hypercyt® cytometer and analyzed in FORECYT™ (IntelliCyt, Albuquerque, N. Mex.). The mean fluorescence intensities (MFI) were expressed as fold change above isotype control levels (background). FACS binding confirmed that Control I selectively bound to 293/hPRLR expressing cells with MFIs that were 30 fold above background (isotype ctrl) levels and less than 2 fold binding on parental cells.
(§4) Next, the anti-PRLR antibodies of the present invention were tested via FACS for selective binding to the engineered overexpressing PRLR HEK293 cell lines, as well as to non-expressing HEK293 cells and a native PRLR expressing cell line (T47D).

HEK293/hPRLR = molecular target: T1, HEK293/hPRLR; assay: FACS cell surface binding
Description: as §2, §3, §4

HEK293/mPRLR = molecular target: T2, HEK293/mPRLR; assay: FACS cell surface binding
Description: as §2, §3, §4

[5] = molecular target: T3, T47D (native PRLR expressing cell line); assay: FACS cell surface binding
Description: as §2, §3, §4

| Molecule | Kd ([1]; 25° C.) [nM] | T½ ([1]; 25° C.) [h] | Kd ([1]; 37° C.) [nM] | T½ ([1]; 37° C.) [h] | Kd ([2]; 25° C.) [nM] | T½ ([2]; 25° C.) [h] | Kd ([2]; 37° C.) [nM] | T½ ([2]; 37° C.) [h] | Kd ([3]; 25° C.) [nM] | T½ ([3]; 25° C.) [h] | Kd ([3]; 37° C.) [nM] | T½ ([3]; 37° C.) [h] | FACS Cell Binding (Fold Above Background) [4] [Fold Above Background] | FACS Cell Binding (Fold Above Background) (HEK293/hPRLR) | FACS Cell Binding (Fold Above Background) (HEK293/mPRLR) | FACS Cell Binding (Fold Above Background) [5] [Fold Above Background] |
| --- | --- | --- | --- | --- | --- | --- | --- | --- | --- | --- | --- | --- | --- | --- | --- | --- |
| H1H6765P: anti-PRLR antibody, human IgG1 Fc; HCVR/LCVR SEQ ID NOs 18/26 (antibody, V domains shown, human IgG1 Fc) VH: EVQLVESGGGVVRPGGSLRLSCVGSGFSFDDHGMNWVRQGPGKGLEWVSGFNWNGGSTNYAESVKGRFTISRDNARNSLFLQMNSLRAEDTALYYCVRGRSGWFNDAFDVWGPGTMVTVSS VL: EIVLTQSPGTLSLSPGERATLSCRASQTINSNYLAWYRQKPGQTPRLLIYGTSSRATGIPDRFSGSGSGTDFSLTISRLEPEDFAVFYCQQYAGLPTFGPGTKVDIK | 0.0392 | 5.65 | 0.128 | 1.87 | 0.124 | 1.7 | 0.292 | 0.533 | 0.254 | 1.43 | 0.0504 | 3.58 | 2 | 38 | 1 | 40 |
| H1H6975N: human IgG1 Fc form of H2M6975N; anti-PRLR; HCVR/LCVR SEQ ID NOs 370/378 (antibody, V domains shown, human IgG1 Fc) VH: EVHLVESGGGLVQPGGSLRLSCAASGFTFSSYEMNWVRQTPGKGLEWISHISSRSVIIYYADSVKGRFTISRDNAKNSLFLQMNSLRAEDTAVYFCAGITIFGIPEYWGQGTLVTVSS VL: EIVLTQSPATLSLSPGERATLSCRASQSVSSYFAWYQQKPGQAPRLLIYDASSRATGIPTRFSGSGSGTDFTLTISSLEPEDFAVYYCQQRSSWPITFGQGTRLEIK | 0.0684 | 9.797 | 0.184 | 2.717 | 0.49 | 2.618 | 1.29 | 0.705 | 1.14 | 1.47 | 2.27 | 0.607 | 1 | 38 | 1 | 46 |
| H1H6762P: anti-PRLR antibody, human IgG1 Fc; HCVR/LCVR SEQ ID NOs 2/10 (antibody, V domains shown, human IgG1 Fc) VH: QVQLVESGGGVVQPGRSLRLSCAASGFTFSHYGMVWVRQPPGKGLEWVALISFDGTTKYYADSVKGRFTISRDNSKNTLYLQMNSLRAEDTAVYFCVGAIAAAAFDLWGRGTLVTVSS VL: EIVMTQSPATLSVSPGERATLSCRASQSVSSDLAWYQQKPGQAPRLLIYSASARATGIPARFTGSGSGTDFTLTISSLQSEDFAVYYCQQYNNWPMYTFGQGTKLEIK | 0.0992 | 2.98 | 0.128 | 1.87 | 0.259 | 1.07 | 0.48 | 0.417 | 0.511 | 0.917 | 0.823 | 0.35 | 1 | 36 | 2 | 38 |
| H1H6976N: human IgG1 Fc form of H2M6976N; anti-PRLR; HCVR/LCVR SEQ ID NOs 386/394 (antibody, V domains shown, human IgG1 Fc) VH: EVQLLESGGGFVQPGGSLRLSCAASGFTFSSYAMSWVRQAPGKGLEWVSIISSNGRYTYYADSVKGRFTISRDNSKNTLYLQMNSLRAEDTAVYYCATVTGDWFDPWGQGTLVTVSS VL: DIQLTQSPSFLSASVGDRVTITCWASQDIDISLAWYQQKPGKAPKLLIYAASTLQSGVPSKFSGSGSGTDFTLTISSLQPEDFSTYYCQQLNSYPITFGQGTRLDIK | 0.0906 | 1.907 | 0.102 | 1.38 | 1.59 | 0.223 | 4.04 | 0.0617 | 1.75 | 0.237 | 5.24 | 0.0617 | 1 | 8 | 1 | 37 |
| H1H6774P: anti-PRLR antibody, human IgG1 Fc; HCVR/LCVR SEQ ID NOs 34/42 (antibody, V domains shown, human IgG1 Fc) VH: EVQLVESGGGLAQPGGSLRLSCVASGFTFSTYWMSWVRQAPGKGLDWVGNIKQDGSEQNYVDSVRGRFTISRDNAKNSLFLQMNSLRAEDTGVYYCATLLTKGDYWGQGTLVTVSS VL: DIQMTQSPSSLSASVGDSVTITCRASQDISNYLDWFQQKPGKAPKSLIYAASILQGGVPSRFSGSGYGTDFTLTISSLQPEDFATYYCRQYKTYPFTFGPGTKVDIK | 0.112 | 2.15 | 0.138 | 1 | 1.14 | 0.233 | 2.95 | 0.067 | 1.77 | 0.217 | 5 | 0.05 | 1 | 1 | 1 | 39 |
